For orientation: pEC50 means the EC50 on a negative log10 scale, so that one unit is a factor of ten. A lower pEC50 goes with a high EC50.

pEC50: −log10 of the molar value.

In article PMC7859635, “The “C3aR Antagonist” SB290157 is a Partial C5aR2 Agonist” (Frontiers in Pharmacology, 2021) one finds EC50, phosphorylation of ERK1/2 in CHO-C3aR cells (AlphaLISA, 10 min), EC50 and phosphorylation of ERK1/2 in HMDMs (AlphaLISA, 10 min), EC50 data, which are given here for 2 molecules.

In one experiment the target is T1, C5aR2 (Homo sapiens, UniProt Q9P296).
T1 construct: human C5aR2-Venus
The experiment can be described thus: BRET β-arrestin […] recruitment to C5aR2 in transfected HEK293 cells (partial agonist). It counts as cell-based. For orientation: Bioluminescence resonance energy transfer reports proximity on the nanometre scale.

In experiment [1] the target is human C3aR on Chinese hamster ovary cells stably expressing C3aR (CHO-C3aR) (human) (UniProt Q16581).
The target of experiment [2] is human C3aR of human monocyte-derived macrophages (HMDMs) (human (endogenous in HMDMs)) (UniProt Q16581).
Sequence of human C3aR of human monocyte-derived macrophages (HMDMs) (human (endogenous in HMDMs)) (Q16581 whole entry): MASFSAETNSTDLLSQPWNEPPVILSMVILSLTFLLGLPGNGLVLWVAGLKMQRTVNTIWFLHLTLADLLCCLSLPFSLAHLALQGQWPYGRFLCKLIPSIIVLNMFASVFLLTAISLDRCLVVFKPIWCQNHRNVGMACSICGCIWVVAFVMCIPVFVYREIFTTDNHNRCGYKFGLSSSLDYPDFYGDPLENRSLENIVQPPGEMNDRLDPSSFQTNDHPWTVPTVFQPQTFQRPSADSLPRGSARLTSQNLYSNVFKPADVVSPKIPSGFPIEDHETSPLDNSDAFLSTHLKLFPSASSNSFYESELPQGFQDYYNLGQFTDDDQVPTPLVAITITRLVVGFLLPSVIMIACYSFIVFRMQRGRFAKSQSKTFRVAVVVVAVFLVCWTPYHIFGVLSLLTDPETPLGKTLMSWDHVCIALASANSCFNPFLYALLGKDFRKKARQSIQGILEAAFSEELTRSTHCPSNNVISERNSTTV

Sequence of purified human C3a (P01024 672-748): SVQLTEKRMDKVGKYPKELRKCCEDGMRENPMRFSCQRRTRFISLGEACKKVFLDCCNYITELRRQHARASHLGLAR
Sequence of human C3aR on Chinese hamster ovary cells stably expressing C3aR (CHO-C3aR) (human) (Q16581 whole entry): as the sequence (Q16581 whole entry) above
T1 sequence (Q9P296 whole entry): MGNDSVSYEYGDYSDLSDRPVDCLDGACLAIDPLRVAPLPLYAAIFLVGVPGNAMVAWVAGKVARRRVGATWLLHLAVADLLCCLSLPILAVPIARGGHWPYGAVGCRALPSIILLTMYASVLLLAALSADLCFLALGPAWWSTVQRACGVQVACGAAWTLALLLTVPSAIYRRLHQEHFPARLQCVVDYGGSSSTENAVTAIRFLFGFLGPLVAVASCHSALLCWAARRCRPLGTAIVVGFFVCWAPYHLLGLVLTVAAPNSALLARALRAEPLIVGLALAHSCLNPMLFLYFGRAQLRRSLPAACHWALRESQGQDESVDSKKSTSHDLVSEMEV

On C5aR2, `N=C(N)NCCC[C@H](NC(=O)COCC(c1ccccc1)c1ccccc1)C(=O)O` [SB290157] gave a negative-log EC50 (pEC50) of 4.79.
In turn, “purified human C3a (from UniProt P01024 672-748) (ligand)” registered a phosphorylation of ERK1/2 in CHO-C3aR cells (AlphaLISA, 10 min), EC50 in experiment [1] of 0.39 nM. In experiment [2], this molecule came in with a phosphorylation of ERK1/2 in HMDMs (AlphaLISA, 10 min), EC50 of 0.21 nM.
